Experimental data reported in patent US20250313634A1 (WUXI BIOLOGICS SHANGHAI, published 2025).

Experiments:
Test in all cases: capture ELISA on coated 1.14.4; relative to silent alanine substitutions
[1] = target: T1, hPD-L1_ECD.His point mutant Y81A (human, UniProt Q9NZQ7 19-238)
T1 construct: extracellular domain
Procedure, shortened: (§1)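 Capture ELISA in which supernatant containing quantified PD-L1 alanine mutant was detected with HRP anti-His antibody. Absorbance was normalized to the average of control mutants. Epitope residues were called at binding fold change <0.55.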

[2] = target: T2, hPD-L1_ECD.His point mutant E72A (human, UniProt Q9NZQ7 19-238)
T2 construct: extracellular domain
Procedure, shortened: as §1

[3] = target: T3, hPD-L1_ECD.His point mutant N135A (human, UniProt Q9NZQ7 19-238)
T3 construct: extracellular domain
Procedure, shortened: as §1

[4] = target: T4, hPD-L1_ECD.His point mutant K162A (human, UniProt Q9NZQ7 19-238)
T4 construct: extracellular domain
Procedure, shortened: as §1

[5] = target: T5, hPD-L1_ECD.His point mutant I38A (human, UniProt Q9NZQ7 19-238)
T5 construct: extracellular domain
Procedure, shortened: as §1

[6] = target: T6, hPD-L1_ECD.His point mutant I54A (human, UniProt Q9NZQ7 19-238)
T6 construct: extracellular domain
Procedure, shortened: as §1

[7] = target: T7, hPD-L1_ECD.His point mutant G33A (human, UniProt Q9NZQ7 19-238)
T7 construct: extracellular domain
Procedure, shortened: as §1

[8] = target: T8, hPD-L1_ECD.His point mutant L94A (human, UniProt Q9NZQ7 19-238)
T8 construct: extracellular domain
Procedure, shortened: as §1

[9] = target: T9, hPD-L1_ECD.His point mutant P24A (human, UniProt Q9NZQ7 19-238)
T9 construct: extracellular domain
Procedure, shortened: as §1

[10] = target: T10, hPD-L1_ECD.His point mutant F191A (human, UniProt Q9NZQ7 19-238)
T10 construct: extracellular domain
Procedure, shortened: as §1

[11] = target: T11, hPD-L1_ECD.His point mutant E31A (human, UniProt Q9NZQ7 19-238)
T11 construct: extracellular domain
Procedure, shortened: as §1

[12] = target: T12, hPD-L1_ECD.His point mutant A52G (human, UniProt Q9NZQ7 19-238)
T12 construct: extracellular domain
Procedure, shortened: as §1

[13] = target: T13, hPD-L1_ECD.His point mutant S93A (human, UniProt Q9NZQ7 19-238)
T13 construct: extracellular domain
Procedure, shortened: as §1

[14] = target: T14, hPD-L1_ECD.His point mutant H69A (human, UniProt Q9NZQ7 19-238)
T14 construct: extracellular domain
Procedure, shortened: as §1

[15] = target: T15, hPD-L1_ECD.His point mutant D122A (human, UniProt Q9NZQ7 19-238)
T15 construct: extracellular domain
Procedure, shortened: as §1

[16] = target: T16, hPD-L1_ECD.His point mutant R82A (human, UniProt Q9NZQ7 19-238)
T16 construct: extracellular domain
Procedure, shortened: as §1

[17] = target: T17, hPD-L1_ECD.His point mutant N35A (human, UniProt Q9NZQ7 19-238)
T17 construct: extracellular domain
Procedure, shortened: as §1

[18] = target: T18, hPD-L1_ECD.His point mutant H78A (human, UniProt Q9NZQ7 19-238)
T18 construct: extracellular domain
Procedure, shortened: as §1

[19] = target: T19, hPD-L1_ECD.His point mutant K89A (human, UniProt Q9NZQ7 19-238)
T19 construct: extracellular domain
Procedure, shortened: as §1

[20] = target: T20, hPD-L1_ECD.His point mutant Y118A (human, UniProt Q9NZQ7 19-238)
T20 construct: extracellular domain
Procedure, shortened: as §1

[21] = target: T21, hPD-L1_ECD.His point mutant T22A (human, UniProt Q9NZQ7 19-238)
T21 construct: extracellular domain
Procedure, shortened: as §1

[22] = target: T22, hPD-L1_ECD.His point mutant K25A (human, UniProt Q9NZQ7 19-238)
T22 construct: extracellular domain
Procedure, shortened: as §1

[23] = target: T23, hPD-L1_ECD.His point mutant K124A (human, UniProt Q9NZQ7 19-238)
T23 construct: extracellular domain
Procedure, shortened: as §1

[24] = target: T24, hPD-L1_ECD.His point mutant Q77A (human, UniProt Q9NZQ7 19-238)
T24 construct: extracellular domain
Procedure, shortened: as §1

[25] = target: T25, hPD-L1_ECD.His point mutant T179A (human, UniProt Q9NZQ7 19-238)
T25 construct: extracellular domain
Procedure, shortened: as §1

[26] = target: T26, hPD-L1_ECD.His point mutant L142A (human, UniProt Q9NZQ7 19-238)
T26 construct: extracellular domain
Procedure, shortened: as §1

T23 sequence (Q9NZQ7 19-238 K124A): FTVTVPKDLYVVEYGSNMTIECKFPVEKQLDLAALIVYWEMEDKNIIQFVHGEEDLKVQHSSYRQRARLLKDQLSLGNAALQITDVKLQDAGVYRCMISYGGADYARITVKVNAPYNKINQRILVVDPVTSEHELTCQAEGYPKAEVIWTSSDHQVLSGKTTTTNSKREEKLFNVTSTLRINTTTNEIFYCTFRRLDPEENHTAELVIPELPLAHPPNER
T26 sequence (Q9NZQ7 19-238 L142A): as the sequence (Q9NZQ7 19-238 K124A) above, with A106K, L124A counted along it
T16 sequence (Q9NZQ7 19-238 R82A): as the sequence (Q9NZQ7 19-238 K124A) above, with R64A, A106K counted along it
T21 sequence (Q9NZQ7 19-238 T22A): as the sequence (Q9NZQ7 19-238 K124A) above, with T4A, A106K counted along it
T5 sequence (Q9NZQ7 19-238 I38A): as the sequence (Q9NZQ7 19-238 K124A) above, with I20A, A106K counted along it
T12 sequence (Q9NZQ7 19-238 A52G): as the sequence (Q9NZQ7 19-238 K124A) above, with A34G, A106K counted along it
T19 sequence (Q9NZQ7 19-238 K89A): as the sequence (Q9NZQ7 19-238 K124A) above, with K71A, A106K counted along it
T22 sequence (Q9NZQ7 19-238 K25A): as the sequence (Q9NZQ7 19-238 K124A) above, with K7A, A106K counted along it
T10 sequence (Q9NZQ7 19-238 F191A): as the sequence (Q9NZQ7 19-238 K124A) above, with A106K, F173A counted along it
T17 sequence (Q9NZQ7 19-238 N35A): as the sequence (Q9NZQ7 19-238 K124A) above, with N17A, A106K counted along it
T13 sequence (Q9NZQ7 19-238 S93A): as the sequence (Q9NZQ7 19-238 K124A) above, with S75A, A106K counted along it
T4 sequence (Q9NZQ7 19-238 K162A): as the sequence (Q9NZQ7 19-238 K124A) above, with A106K, K144A counted along it
T14 sequence (Q9NZQ7 19-238 H69A): as the sequence (Q9NZQ7 19-238 K124A) above, with H51A, A106K counted along it
T3 sequence (Q9NZQ7 19-238 N135A): as the sequence (Q9NZQ7 19-238 K124A) above, with A106K, N117A counted along it
T25 sequence (Q9NZQ7 19-238 T179A): as the sequence (Q9NZQ7 19-238 K124A) above, with A106K, T161A counted along it
T18 sequence (Q9NZQ7 19-238 H78A): as the sequence (Q9NZQ7 19-238 K124A) above, with H60A, A106K counted along it
T9 sequence (Q9NZQ7 19-238 P24A): as the sequence (Q9NZQ7 19-238 K124A) above, with P6A, A106K counted along it
T7 sequence (Q9NZQ7 19-238 G33A): as the sequence (Q9NZQ7 19-238 K124A) above, with G15A, A106K counted along it
T20 sequence (Q9NZQ7 19-238 Y118A): as the sequence (Q9NZQ7 19-238 K124A) above, with Y100A, A106K counted along it
T15 sequence (Q9NZQ7 19-238 D122A): as the sequence (Q9NZQ7 19-238 K124A) above, with D104A, A106K counted along it
T24 sequence (Q9NZQ7 19-238 Q77A): as the sequence (Q9NZQ7 19-238 K124A) above, with Q59A, A106K counted along it
T1 sequence (Q9NZQ7 19-238 Y81A): as the sequence (Q9NZQ7 19-238 K124A) above, with Y63A, A106K counted along it
T6 sequence (Q9NZQ7 19-238 I54A): as the sequence (Q9NZQ7 19-238 K124A) above, with I36A, A106K counted along it
T2 sequence (Q9NZQ7 19-238 E72A): as the sequence (Q9NZQ7 19-238 K124A) above, with E54A, A106K counted along it
T11 sequence (Q9NZQ7 19-238 E31A): as the sequence (Q9NZQ7 19-238 K124A) above, with E13A, A106K counted along it
T8 sequence (Q9NZQ7 19-238 L94A): as the sequence (Q9NZQ7 19-238 K124A) above, with L76A, A106K counted along it

B1: 1.14.4 (antibody, V domains shown)
VH: EVQLLESGGGLVQPGGSLRLSCAASGFTFSSYAMSWVRQAPGKGLEWVSGISGSGGFTYYADSVKGRFTISRDNSKNTLYLQMNSLRAEDTAVYYCAKPPRGYNYGPFDYWGQGTLVTVSS
VL: SYVLTQPPSVSVAPGQTARITCGGNNIGSKSVHWYQQKPGQAPVLVVYDDSDRPSGIPERFSGSNSGNTATLTISRVEAGDEADYYCQVWDSSSDHVVFGGGTKLTVL
notes: Fully human monoclonal antibody with a human constant region of IgG4 isotype
Question: For B1, which fold change [1] is on record?
Answer: The fold change was 0.692 fold.

Question: And the fold change [2]?
Answer: Its fold change is 0.748 fold.

Question: And the fold change [3]?
Answer: Its fold change is 1.03 fold.

Question: And the fold change [4]?
Answer: The fold change was 0.99 fold.

Question: What about the fold change [5] of the same binder?
Answer: Its fold change is 1.13 fold.

Question: What about the fold change [6] of the same binder?
Answer: Its fold change is 0.918 fold.

Question: What about the fold change [7] of the same binder?
Answer: Its fold change is 0.807 fold.

Question: And the fold change [8]?
Answer: The fold change was 1.19 fold.

Question: And the fold change [9]?
Answer: Its fold change is 0.907 fold.

Question: And the fold change [10]?
Answer: The fold change was 0.897 fold.

Question: What about the fold change [11] of the same binder?
Answer: The fold change was 0.908 fold.

Question: And the fold change [12]?
Answer: Its fold change is 0.622 fold.

Question: And the fold change [13]?
Answer: The fold change was 1.15 fold.

Question: And the fold change [14]?
Answer: The fold change was 1.06 fold.

Question: What about the fold change [15] of the same binder?
Answer: Its fold change is 1.22 fold.

Question: And the fold change [16]?
Answer: Its fold change is 0.934 fold.

Question: And the fold change [17]?
Answer: The fold change was 0.788 fold.

Question: What about the fold change [18] of the same binder?
Answer: Its fold change is 0.821 fold.

Question: What about the fold change [19] of the same binder?
Answer: Its fold change is 0.913 fold.

Question: And the fold change [20]?
Answer: The fold change was 0.701 fold.

Question: And the fold change [21]?
Answer: The fold change was 0.875 fold.

Question: What about the fold change [22] of the same binder?
Answer: Its fold change is 0.857 fold.

Question: What about the fold change [23] of the same binder?
Answer: The fold change was 1.06 fold.

Question: And the fold change [24]?
Answer: The fold change was 1.01 fold.

Question: What about the fold change [25] of the same binder?
Answer: The fold change was 0.893 fold.

Question: What about the fold change [26] of the same binder?
Answer: Its fold change is 1.05 fold.
